Experimental data: patent US20250177546A1 (SANYOU BIOPHARMACEUTICALS, published 2025)
Substitutions are numbered along the chain they refer to.

B1: B31-H4L2 (antibody, human IgG1, kappa, V domains shown)
VH: EVQLVESGGGLVQPGGSLRLSCAASGFTFSRYAMSWVRQAPGKGLEWVSAISRGGSTYYADSVKGRFTISRDNSKNTLYLQMNSLRAEDTAVYYCASYFGNYDAMDYWGQGTTVTVSS
VL: DIQMTQSPSSLSASVGDRVTITCKASQDINNYVSWFQQKPGKAPKSLIYRANRLVDGVPSRFSGSGSGTDYTFTISSLQPEDFATYYCLQFDEFPYTFGGGTKLEIKR
B2: B31-H4L4 (antibody, human IgG1, kappa, V domains shown)
VH: B1 VH
VL: B1 VL with K24R, V33L, V55Q, D56S, Y71F, F73L
B3: B31-H4L3 (antibody, human IgG1, kappa, V domains shown)
VH: B1 VH
VL: B1 VL with K24R, D56S, Y71F
B4: B31-H3L3 (antibody, human IgG1, kappa, V domains shown)
VH: B1 VH with S49A, A50S
VL: B1 VL with K24R, D56S, Y71F
B5: B31-H3L2 (antibody, human IgG1, kappa, V domains shown)
VH: B1 VH with S49A, A50S
VL: B1 VL
B6: B31-H3L4 (antibody, human IgG1, kappa, V domains shown)
VH: B1 VH with S49A, A50S
VL: B1 VL with K24R, V33L, V55Q, D56S, Y71F, F73L
B7: B31-H3L3-MMAE (antibody, human IgG1, kappa, V domains shown)
VH: B1 VH with S49A, A50S
VL: B1 VL with K24R, D56S, Y71F
modifications: MC-VC-PAB-MMAE on cysteine sulfhydryl groups of reduced interchain disulfides; average DAR 3.5 over the whole antibody
notes: conjugated positions not resolved; also called B31-H3L3-MC-VC-PAB-MMAE; B31-MMAE
B8: B62-H3L3 (antibody, human IgG1, kappa)
heavy: not shown
light: DIQMTQSPSSLSASVGDRVTITCVTSIDIDDDVNWYQQKPGKAPKLLISAGNTLRPGVPSRFSGSGSGTDFTFTISSLQPEDIATYYCLQSDNLPYTFGGGTKLEIKRTVAAPSVFIFPPSDEQLKSGTASVVCLLNNFYPREAKVQWKVDNALQSGNSQESVTEQDSKDSTYSLSSTLTLSKADYEKHKVYACEVTHQGLSSPVTKSFNRGEC
B9: B62-H3L3-MMAE (antibody, human IgG1, kappa)
heavy: not shown
light: B8 light
modifications: MC-VC-PAB-MMAE on cysteine sulfhydryl groups of reduced interchain disulfides; average DAR 3.5 over the whole antibody
notes: conjugated positions not resolved; also called B62-H3L3-MC-VC-PAB-MMAE
B10: B31-H1L1 (antibody, human IgG1, kappa, V domains shown)
VH: B1 VH with A40T, G44R, S49A, A50S, A60P, S74A, N83S, V92M
VL: B1 VL with S46T, T69Q
notes: also called B31-HIL1
B11: B31-H2L2 (antibody, human IgG1, kappa, V domains shown)
VH: B1 VH with S49A, A50S, S74A, N83S
VL: B1 VL
B12: B31-H2L3 (antibody, human IgG1, kappa, V domains shown)
VH: B1 VH with S49A, A50S, S74A, N83S
VL: B1 VL with K24R, D56S, Y71F

Molecular target: T1, huROR1-His (human ROR1 ECD AA30-406 with C-terminal His tag, made in house) (human, UniProt Q01973 30-406)
T1 construct: range 30-406; Expressed in HEK293; also called antigen protein huROR1-His; not shown: C-terminal His tag
Assay: ELISA, huROR1-His coated plate, goat anti-human Fc-HRP, OD450

T1 sequence (Q01973 30-406 limits assumed): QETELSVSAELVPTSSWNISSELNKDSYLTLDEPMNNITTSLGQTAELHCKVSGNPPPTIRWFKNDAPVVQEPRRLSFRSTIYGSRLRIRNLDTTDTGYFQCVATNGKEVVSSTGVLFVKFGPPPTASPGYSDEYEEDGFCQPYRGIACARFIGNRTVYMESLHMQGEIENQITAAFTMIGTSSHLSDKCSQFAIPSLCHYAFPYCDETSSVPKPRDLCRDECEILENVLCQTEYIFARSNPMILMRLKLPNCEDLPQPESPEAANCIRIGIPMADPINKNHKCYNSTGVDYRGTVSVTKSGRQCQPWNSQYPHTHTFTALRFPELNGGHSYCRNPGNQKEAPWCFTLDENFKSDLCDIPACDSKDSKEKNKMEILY

EC50 | Binder
8.12 ng/mL | B1
17.1 ng/mL | B2
5.74 ng/mL | B3

Molecular target: T1, huROR1-His (human ROR1 ECD AA30-406 …)
Assay: as above
Remark: another data set of the same source

EC50 | Binder
4.6 ng/mL | B4
3.23 ng/mL | B5
5.23 ng/mL | B6

Molecular target: T2, human ROR1 on cells (full-length human ROR1 on huROR1-HEK293 cells; human ROR1 on A549 and HT-29 tumor cells) (human, UniProt Q01973 30-937)
T2 construct: whole, on cells; also called hROR1-HEK293T; A549 tumor cells
Assay: flow cytometry (FACS) on HT29 (HT-29) tumor cells, anti-human IgG-Fc secondary antibody, MFI
Method: (§1) The specific method was as follows: A549 cells or HT-29 cells in the logarithmic growth phase were prepared to a single-cell suspension, the density was adjusted to 1×10⁶ cells/mL, 100 µL/well was added to a 96-well round-bottom plate, then centrifuged at 4° C., 300 g, and the supernatant was removed. […] After the incubation, the cell mixture was washed three times and then 100 μL of 1:300 diluted secondary antibody Goat F(ab′)₂ Anti-Human IgG-Fc (abcam, ab98596) was added. The mixture was incubated at 4° C. in the dark for 30 min. After washing three times, the cells were detected by flow cytometry (Beckman, CytoFLEX AOO-1-1102).

T2 sequence (Q01973 30-937): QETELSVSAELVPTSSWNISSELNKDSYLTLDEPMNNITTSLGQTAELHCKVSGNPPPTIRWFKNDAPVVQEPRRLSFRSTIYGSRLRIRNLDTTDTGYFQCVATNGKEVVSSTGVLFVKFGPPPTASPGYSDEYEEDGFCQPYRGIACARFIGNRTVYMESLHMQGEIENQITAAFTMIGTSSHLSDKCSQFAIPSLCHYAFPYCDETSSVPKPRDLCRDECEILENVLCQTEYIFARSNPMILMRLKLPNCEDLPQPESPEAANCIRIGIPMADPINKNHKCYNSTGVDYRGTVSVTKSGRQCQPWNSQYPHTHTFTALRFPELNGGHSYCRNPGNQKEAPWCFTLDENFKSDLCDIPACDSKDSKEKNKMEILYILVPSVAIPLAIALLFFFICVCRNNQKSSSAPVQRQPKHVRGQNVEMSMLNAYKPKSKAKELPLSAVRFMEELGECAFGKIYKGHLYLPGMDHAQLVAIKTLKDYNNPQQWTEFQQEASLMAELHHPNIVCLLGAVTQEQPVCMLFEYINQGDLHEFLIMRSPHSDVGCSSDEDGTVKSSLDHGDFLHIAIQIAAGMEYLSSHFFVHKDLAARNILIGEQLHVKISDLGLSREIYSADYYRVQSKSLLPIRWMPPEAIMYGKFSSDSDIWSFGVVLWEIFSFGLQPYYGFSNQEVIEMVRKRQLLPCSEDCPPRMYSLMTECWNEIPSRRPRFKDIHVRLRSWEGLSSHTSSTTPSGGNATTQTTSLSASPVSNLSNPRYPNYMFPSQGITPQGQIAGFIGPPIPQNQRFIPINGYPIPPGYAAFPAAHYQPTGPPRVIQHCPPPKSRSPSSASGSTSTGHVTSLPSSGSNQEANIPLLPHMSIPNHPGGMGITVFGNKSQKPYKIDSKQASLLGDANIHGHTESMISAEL

EC50 (read off the curve) | Binder
~20 ng/mL | B7
~20 ng/mL | B4
~20 ng/mL | B8
~20 ng/mL | B9

Molecular target: T1, huROR1-His (human ROR1 ECD AA30-406 …)
Assay: ELISA, huROR1-His coated plate, goat anti-human Fc-HRP, OD450
Remark: another data set of the same source

EC50 | Binder
3.24 ng/mL | B10
4.57 ng/mL | B11
4.29 ng/mL | B12

Molecular target: T1, huROR1-His (human ROR1 ECD AA30-406 …)
Assay: as above
Remark: another data set of the same source

EC50 | Binder
7.21 ng/mL | B8

Molecular target: T2, human ROR1 on cells (full-length human …)
Assay: flow cytometry (FACS) on A549 tumor cells, anti-human IgG-Fc secondary antibody, MFI
Method: as §1

EC50 (read off the curve) | Binder
~20 ng/mL | B7
~20 ng/mL | B4
~10 ng/mL | B8
~20 ng/mL | B9
